These results are taken from PMC3884668.

The target in the data set is T1, DIS3L2 (rDIS3L2, wild type) (Homo sapiens, UniProt Q8IYB7 1-885).
T1 sequence: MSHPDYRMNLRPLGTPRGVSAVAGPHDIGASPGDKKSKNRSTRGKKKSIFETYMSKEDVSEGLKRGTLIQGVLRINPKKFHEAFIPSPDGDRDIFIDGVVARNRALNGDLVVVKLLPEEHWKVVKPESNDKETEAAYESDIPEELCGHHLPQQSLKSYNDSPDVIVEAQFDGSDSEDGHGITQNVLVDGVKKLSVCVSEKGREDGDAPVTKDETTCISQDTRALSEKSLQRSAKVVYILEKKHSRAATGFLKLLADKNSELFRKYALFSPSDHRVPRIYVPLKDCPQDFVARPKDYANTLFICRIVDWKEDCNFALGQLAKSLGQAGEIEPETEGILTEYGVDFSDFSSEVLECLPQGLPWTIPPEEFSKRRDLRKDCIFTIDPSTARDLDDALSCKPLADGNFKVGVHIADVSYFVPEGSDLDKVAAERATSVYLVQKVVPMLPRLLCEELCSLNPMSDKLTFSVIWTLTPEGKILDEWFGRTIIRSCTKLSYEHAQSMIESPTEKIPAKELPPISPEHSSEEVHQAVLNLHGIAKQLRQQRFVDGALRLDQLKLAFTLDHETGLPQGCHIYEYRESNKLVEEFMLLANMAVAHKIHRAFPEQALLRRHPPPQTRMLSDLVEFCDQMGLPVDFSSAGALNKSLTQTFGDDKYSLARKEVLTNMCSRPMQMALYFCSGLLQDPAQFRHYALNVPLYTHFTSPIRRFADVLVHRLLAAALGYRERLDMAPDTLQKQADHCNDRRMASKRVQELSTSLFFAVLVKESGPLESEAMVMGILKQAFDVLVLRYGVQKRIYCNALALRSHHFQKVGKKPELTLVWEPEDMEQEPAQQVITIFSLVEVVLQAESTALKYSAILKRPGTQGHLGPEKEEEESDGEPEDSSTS
The data set is described as follows: EMSA.

For UUUUUUUUUUUUUUUUUUUUUUUUUUUUUU (ssRNA) [U30 RNA], the binding result is recorded as “binds”.
